Results on 11 molecules are retold here after patent US20240270821A1, “GIP/GLP1/GCG TRI-RECEPTOR AGONISTS AND USES THEREOF” (priority 2023, published 2024).

Sequences and labels used below:
B1: Example 1210 (peptide)
chain: YXQGTXTSDXXIXLDXXAQXEFIEXLVEGGPSSGAPPPSGS
modifications: synthetic construct; SITE 2: note = 2-Aminoisobutyric Acid; SITE 6: note = alpha-methyl-2-fluoro-L-phenylalanine; SITE 10: note = 3-(4-Pyridyl)-L-alanine; SITE 11: note = alpha-methyl-L-serine; SITE 13: note = alpha-methyl-leucine; SITE 16: note = L-ornithine; SITE 17: note = Ornithine is chemically
B2: Example 1211 (peptide)
chain: B1 chain with V27I
modifications: synthetic construct; SITE 2: note = 2-Aminoisobutyric Acid; SITE 6: note = alpha-methyl-2-fluoro-L-phenylalanine; SITE 10: note = 3-(4-Pyridyl)-L-alanine; SITE 11: note = alpha-methyl-L-serine; SITE 13: note = alpha-methyl-leucine; SITE 16: note = L-ornithine; SITE 17: note = Ornithine is chemically
B3: Example 1204 (peptide)
chain: B1 chain with G4A, X17K
modifications: synthetic construct; SITE 2: note = 2-Aminoisobutyric Acid; SITE 4: note = D-amino acid; SITE 6: note = alpha-methyl-2-fluoro-L-phenylalanine; SITE 10: note = 3-(4-Pyridyl)-L-alanine; SITE 11: note = alpha-methyl-L-serine; SITE 13: note = alpha-methyl-leucine; SITE 16: note = L-ornithine; SITE 17: n
B4: Example 1209 (peptide)
chain: YXQGTXTSDXSIXLDXXAQXXFIEXLIEGGPSSGEPPPETE
modifications: synthetic construct; SITE 2: note = 2-Aminoisobutyric Acid; SITE 6: note = alpha-methyl-2-fluoro-L-phenylalanine; SITE 10: note = 3-(4-Pyridyl)-L-alanine; SITE 13: note = alpha-methyl-leucine; SITE 16: note = L-ornithine; SITE 17: note = Ornithine is chemically modified through conjugation of the ep
B5: Example 1236 (peptide)
chain: YXQGTXTSDXSIXLDXKAAXAFIEXLLEGGPSSGEPPPS
modifications: synthetic construct; SITE 2: note = 2-Aminoisobutyric Acid; SITE 6: note = alpha-methyl-2-fluoro-L-phenylalanine; SITE 10: note = 3-(4-Pyridyl)-L-alanine; SITE 13: note = alpha-methyl-leucine; SITE 16: note = L-ornithine; SITE 17: note = Lysine is chemically modified through conjugation of the epsil
B6: Example 1196 (peptide)
chain: YXQGTXTSDXXIXLDXKAQXEFIEXLIEGGPPSXXPPPXSE
modifications: non-natural residues; lipidated Lys AEEA-γGlu-C18 diacid; C-term amide; synthetic construct; SITE 2: note = 2-Aminoisobutyric Acid; SITE 6: note = alpha-methyl-2-fluoro-L-phenylalanine; SITE 10: note = 3-(4-Pyridyl)-L-alanine; SITE 11: note = alpha-methyl-L-serine; SITE 13: note = alpha-methyl-leucine; SITE 16: note = L-ornithine; SITE 17: note = Lysine is chemically mo
B7: Example 1197 (peptide)
chain: YXQGTXTSDXXIXLDXKAQXEFIEXLIEGGPPSXXPPPXGGGE
modifications: Lys acylated AEEA-γGlu-C18 diacid; non-natural residues; C-amide; synthetic construct; SITE 2: note = 2-Aminoisobutyric Acid; SITE 6: note = alpha-methyl-2-fluoro-L-phenylalanine; SITE 10: note = 3-(4-Pyridyl)-L-alanine; SITE 11: note = alpha-methyl-L-serine; SITE 13: note = alpha-methyl-leucine; SITE 16: note = L-ornithine; SITE 17: note = Lysine is chemically mo
B8: Example 1234 (peptide)
chain: B7 chain with K17Q, P32S, X34G, X35A, X39S
modifications: not fully specified; no fatty acid conjugated; synthetic construct; SITE 2: note = 2-Aminoisobutyric Acid; SITE 6: note = alpha-methyl-2-fluoro-L-phenylalanine; SITE 10: note = …; SITE 11: note = alpha-methyl-L-serine; SITE 13: note = alpha-methyl-leucine; SITE 16: note = L-ornithine; SITE 20: note = 3-(4-Pyridyl)-L-alanine
B9: Example 1201 (peptide)
chain: B7 chain with X35E, X39S
modifications: non-natural residues; acylated Lys; C-terminal amide; synthetic construct; SITE 2: note = 2-Aminoisobutyric Acid; SITE 6: note = alpha-methyl-2-fluoro-L-phenylalanine; SITE 10: note = 3-(4-Pyridyl)-L-alanine; SITE 11: note = alpha-methyl-L-serine; SITE 13: note = alpha-methyl-leucine; SITE 16: note = L-ornithine; SITE 17: note = Lysine is chemically mo
B10: Example 1199 (peptide)
chain: B7 chain with X39S
modifications: Lys acylated with AEEA-γGlu-C18 diacid; non-natural residues; C-amide; synthetic construct; SITE 2: note = 2-Aminoisobutyric Acid; SITE 6: note = alpha-methyl-2-fluoro-L-phenylalanine; SITE 10: note = 3-(4-Pyridyl)-L-alanine; SITE 11: note = alpha-methyl-L-serine; SITE 13: note = alpha-methyl-leucine; SITE 16: note = L-ornithine; SITE 17: note = Lysine is chemically mo
B11: Example 1213 (peptide)
chain: B7 chain with K17X, P32S, X34G, X35A, X39S
modifications: synthetic construct; SITE 2: note = 2-Aminoisobutyric Acid; SITE 6: note = alpha-methyl-2-fluoro-L-phenylalanine; SITE 10: note = 3-(4-Pyridyl)-L-alanine; SITE 11: note = alpha-methyl-L-serine; SITE 13: note = alpha-methyl-leucine; SITE 16: note = L-ornithine; SITE 17: note = Ornithine is chemically

Residue numbers refer to the chain shown, from its start.

The target of one assay is hGLP-1R (Homo sapiens, UniProt P43220). Nature of the assay: cell-based or functional assay.
hGLP-1R, sequence (P43220 24-463): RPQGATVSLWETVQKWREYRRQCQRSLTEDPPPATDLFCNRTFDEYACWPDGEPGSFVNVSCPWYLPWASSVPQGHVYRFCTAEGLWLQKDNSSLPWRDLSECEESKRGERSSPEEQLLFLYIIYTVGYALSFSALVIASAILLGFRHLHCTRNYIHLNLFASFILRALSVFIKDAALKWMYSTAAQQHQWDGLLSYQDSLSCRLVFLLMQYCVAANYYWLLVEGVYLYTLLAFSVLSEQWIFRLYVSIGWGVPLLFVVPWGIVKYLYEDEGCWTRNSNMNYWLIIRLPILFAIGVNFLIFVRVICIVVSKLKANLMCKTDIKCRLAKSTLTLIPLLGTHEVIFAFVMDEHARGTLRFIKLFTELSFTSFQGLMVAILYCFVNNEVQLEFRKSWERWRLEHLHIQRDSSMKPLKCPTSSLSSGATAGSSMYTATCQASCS
Regarding B1, the Relative cAMP EC50 was 0.375 nM and the cAMP Rel EC50 (1% HSA) turned out to be 38.1 nM.

The molecule B2 registered a Relative cAMP EC50 of 0.276 nM and a cAMP Rel EC50 (1% HSA) of 33.2 nM.

In turn, B3 registered a Relative cAMP EC50 of 0.338 nM and a cAMP Rel EC50 (1% HSA) of 37.4 nM.

In turn, B4 showed a Relative cAMP EC50 of 0.41 nM and a cAMP Rel EC50 (1% HSA) of 37.7 nM.

The molecule B5 registered a Relative cAMP EC50 of 0.304 nM and a cAMP Rel EC50 (1% HSA) of 95.8 nM.

Consider B6, for which the Relative cAMP EC50 was 0.418 nM and the cAMP Rel EC50 (in the presence of 1% HSA) was found to be 45.4 nM.

B7: the Relative cAMP EC50 came to 0.407 nM and the cAMP Rel EC50 (in the presence of 1% HSA) was found to be 46.1 nM.

B8 showed a Relative cAMP EC50 of 1.17 nM and a cAMP Rel EC50 (1% HSA) of 1.15 nM.

Turning to B9, the Relative cAMP EC50 came out at 0.888 nM and the cAMP Rel EC50 (in the presence of 1% HSA) came out at 93.9 nM.

In the case of B10, the Relative cAMP EC50 turned out to be 0.5 nM and the cAMP Rel EC50 (in the presence of 1% HSA) is 63.9 nM.

B11 registered a Relative cAMP EC50 of 0.423 nM and a cAMP Rel EC50 (1% HSA) of 44 nM.

A further assay has as its target T1, human GIP receptor (human) (UniProt P48546).
T1 sequence (looked up): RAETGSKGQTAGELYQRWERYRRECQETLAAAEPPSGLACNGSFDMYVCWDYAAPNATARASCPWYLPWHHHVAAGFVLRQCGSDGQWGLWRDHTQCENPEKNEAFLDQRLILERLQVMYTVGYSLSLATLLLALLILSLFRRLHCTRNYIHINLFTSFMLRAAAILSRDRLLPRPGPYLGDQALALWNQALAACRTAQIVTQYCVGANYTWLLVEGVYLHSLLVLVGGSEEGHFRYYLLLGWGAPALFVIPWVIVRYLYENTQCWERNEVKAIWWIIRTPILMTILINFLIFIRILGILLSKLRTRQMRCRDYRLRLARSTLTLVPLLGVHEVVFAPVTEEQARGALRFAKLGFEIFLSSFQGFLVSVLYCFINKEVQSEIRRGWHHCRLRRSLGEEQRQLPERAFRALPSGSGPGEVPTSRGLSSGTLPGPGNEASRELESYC
The experiment in a line: cell-based or functional assay.
As to B1, the Relative cAMP EC50 amounted to 0.00704 nM and the cAMP Rel EC50 (1% HSA) was 0.635 nM.

As for B2, the Relative cAMP EC50 is 0.00592 nM and the cAMP Rel EC50 (1% HSA) turned out to be 0.489 nM.

Molecule B3 returned a Relative cAMP EC50 of 0.21 nM and a cAMP Rel EC50 (1% HSA) of 15.8 nM.

B4 displayed a Relative cAMP EC50 of 0.00819 nM and a cAMP Rel EC50 (1% HSA) of 0.565 nM.

On to B5, for which the Relative cAMP EC50 is 0.052 nM and the cAMP Rel EC50 (1% HSA) is 11.9 nM.

As to B6, the Relative cAMP EC50 came to 0.00756 nM and the cAMP Rel EC50 (in the presence of 1% HSA) amounted to 0.605 nM.

On to B7, for which the Relative cAMP EC50 stood at 0.00666 nM and the cAMP Rel EC50 (in the presence of 1% HSA) turned out to be 0.639 nM.

Turning to B8, the Relative cAMP EC50 came to 0.0135 nM and the cAMP Rel EC50 (1% HSA) stood at 0.011 nM.

As to B9, the Relative cAMP EC50 is 0.00959 nM and the cAMP Rel EC50 (in the presence of 1% HSA) turned out to be 1.02 nM.

For the molecule B10, the Relative cAMP EC50 turned out to be 0.0076 nM and the cAMP Rel EC50 (in the presence of 1% HSA) amounted to 0.733 nM.

In turn, B11 returned a Relative cAMP EC50 of 0.00721 nM and a cAMP Rel EC50 (1% HSA) of 0.616 nM.

The target of another assay is human glucagon receptor (human) (UniProt P47871). Nature of the assay: cell-based or functional assay.
human glucagon receptor (human), sequence (P47871 26-477): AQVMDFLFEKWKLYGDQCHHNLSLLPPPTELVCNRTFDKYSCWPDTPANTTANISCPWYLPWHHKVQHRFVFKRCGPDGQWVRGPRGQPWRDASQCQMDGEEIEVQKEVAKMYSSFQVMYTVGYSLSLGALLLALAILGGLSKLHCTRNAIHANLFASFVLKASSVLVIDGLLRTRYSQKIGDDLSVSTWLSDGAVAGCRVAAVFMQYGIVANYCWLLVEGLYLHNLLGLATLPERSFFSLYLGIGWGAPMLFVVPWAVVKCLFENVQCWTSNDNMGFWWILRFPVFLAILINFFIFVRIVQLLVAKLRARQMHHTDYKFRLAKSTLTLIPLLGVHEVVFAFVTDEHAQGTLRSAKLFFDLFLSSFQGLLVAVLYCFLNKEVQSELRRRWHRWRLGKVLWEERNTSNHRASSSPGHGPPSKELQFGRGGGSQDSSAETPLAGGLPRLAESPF
Consider B1, for which the Relative cAMP EC50 stood at 2.25 nM and the cAMP Rel EC50 (1% HSA) was found to be 288 nM.

In turn, B2 yielded a Relative cAMP EC50 of 1.45 nM and a cAMP Rel EC50 (1% HSA) of 211 nM.

For B3, the Relative cAMP EC50 turned out to be 3.5 nM and the cAMP Rel EC50 (1% HSA) amounted to 507 nM.

B4 gave a Relative cAMP EC50 of 0.97 nM and a cAMP Rel EC50 (1% HSA) of 124 nM.

With B5, the Relative cAMP EC50 is 0.947 nM and the cAMP Rel EC50 (1% HSA) was 502 nM.

In the case of B6, the Relative cAMP EC50 was 1.9 nM and the cAMP Rel EC50 (in the presence of 1% HSA) is 257 nM.

Consider B7, for which the Relative cAMP EC50 was found to be 1.88 nM and the cAMP Rel EC50 (in the presence of 1% HSA) turned out to be 288 nM.

Regarding B8, the Relative cAMP EC50 was 11.6 nM and the cAMP Rel EC50 (1% HSA) turned out to be 11.7 nM.

For B9, the Relative cAMP EC50 amounted to 1.76 nM and the cAMP Rel EC50 (in the presence of 1% HSA) was found to be 234 nM.

B10: the Relative cAMP EC50 amounted to 2.05 nM and the cAMP Rel EC50 (in the presence of 1% HSA) worked out at 352 nM.

In the case of B11, the Relative cAMP EC50 came to 1.69 nM and the cAMP Rel EC50 (1% HSA) was found to be 268 nM.
